From article PMC8424379 (2021)

Biological target: Raf2 fused to Gal4 DNA-binding domain (UniProt O74560)
Experiment: yeast two-hybrid (β-galactosidase)
Settings: Ccq1 fused to Gal4 activation domain, read off a plot

Chain of Ccq1_(496–583), Raf2-binding motif of Ccq1, fused to Gal4 activation domain (Q10432 496-583, stated change not applied): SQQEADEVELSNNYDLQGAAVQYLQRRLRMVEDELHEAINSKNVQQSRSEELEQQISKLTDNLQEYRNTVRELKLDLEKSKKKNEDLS
Chain of Raf2 fused to Gal4 DNA-binding domain (O74560 whole entry, the tested form may be a part): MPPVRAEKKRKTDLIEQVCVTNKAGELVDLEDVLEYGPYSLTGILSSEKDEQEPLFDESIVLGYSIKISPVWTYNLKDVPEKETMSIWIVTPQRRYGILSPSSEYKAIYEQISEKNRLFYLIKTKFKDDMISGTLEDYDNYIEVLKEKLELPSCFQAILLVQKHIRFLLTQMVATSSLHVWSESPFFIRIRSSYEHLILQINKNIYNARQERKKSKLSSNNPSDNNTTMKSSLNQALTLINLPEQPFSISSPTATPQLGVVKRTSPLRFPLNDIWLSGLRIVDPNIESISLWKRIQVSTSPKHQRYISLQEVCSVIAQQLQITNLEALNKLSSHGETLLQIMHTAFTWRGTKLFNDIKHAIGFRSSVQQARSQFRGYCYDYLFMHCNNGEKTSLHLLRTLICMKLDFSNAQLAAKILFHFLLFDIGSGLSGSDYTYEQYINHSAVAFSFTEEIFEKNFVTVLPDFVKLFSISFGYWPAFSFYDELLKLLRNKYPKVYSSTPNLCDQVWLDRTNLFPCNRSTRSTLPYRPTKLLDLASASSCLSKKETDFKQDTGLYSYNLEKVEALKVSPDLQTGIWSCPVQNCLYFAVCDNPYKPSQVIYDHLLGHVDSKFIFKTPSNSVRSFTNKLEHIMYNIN

Ccq1_(496–583), Raf2-binding motif of Ccq1, fused to Gal4 activation domain (from UniProt Q10432) V570R
response: 80
